Literature values, collected in publication PMC3234256.

Target: Lys73 (UniProt position 71, MMSTFKVLLCG)
Assay: NMR

TEM-1 beta-lactamase (class A) (Escherichia coli)
pKa: above 10
